Results: patent US10654939

Columns and labels:
[1] = target: human CD40 expressed on cells (human) (UniProt P25942); assay: cell-based or functional assay
[2] = target: recombinant human CD40 (ECD)-his (human) (UniProt P25942); assay: ELISA, hCD40(ECD)-his coated
[3] = target: recombinant rhesus CD40 (ECD)-hFc (rhesus monkey); assay: ELISA, rhCD40(ECD)-hFc coated
[4] = target: human CD40 expressed on cells (human) (UniProt P25942); assay: FACS, HEK293A/humanCD40 cells
[5] = target: rhesus CD40 expressed on HEK293A cells (rhesus monkey); assay: FACS, HEK293A/rhesusCD40 cells
rhesus CD40 expressed on HEK293A cells (rhesus monkey), sequence (P25942 other isoform, or with tags, fused parts or gaps limits assumed): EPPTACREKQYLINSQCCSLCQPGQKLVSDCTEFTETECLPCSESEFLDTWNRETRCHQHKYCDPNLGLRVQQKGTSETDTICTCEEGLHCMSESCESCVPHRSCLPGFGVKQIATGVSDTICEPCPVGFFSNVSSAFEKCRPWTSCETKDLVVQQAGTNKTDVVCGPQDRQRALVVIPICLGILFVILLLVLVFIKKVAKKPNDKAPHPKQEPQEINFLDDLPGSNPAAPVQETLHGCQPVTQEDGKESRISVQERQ

[6] = target: recombinant human CD40 (ECD)-his (human) (UniProt P25942); assay: SPR (Biacore 8K), hCD40(ECD)-his coupled to chip, antibody injected

RO7009789 (antibody), sequence (VH): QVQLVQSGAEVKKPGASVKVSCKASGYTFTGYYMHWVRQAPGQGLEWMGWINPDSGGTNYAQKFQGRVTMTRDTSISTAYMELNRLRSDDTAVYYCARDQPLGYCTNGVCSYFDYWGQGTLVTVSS
RO7009789 (antibody), sequence (VL): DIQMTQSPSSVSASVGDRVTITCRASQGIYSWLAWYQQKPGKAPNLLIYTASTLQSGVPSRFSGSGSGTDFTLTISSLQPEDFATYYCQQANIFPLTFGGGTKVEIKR
human CD40 expressed on cells (human), sequence (P25942 21-277 limits assumed): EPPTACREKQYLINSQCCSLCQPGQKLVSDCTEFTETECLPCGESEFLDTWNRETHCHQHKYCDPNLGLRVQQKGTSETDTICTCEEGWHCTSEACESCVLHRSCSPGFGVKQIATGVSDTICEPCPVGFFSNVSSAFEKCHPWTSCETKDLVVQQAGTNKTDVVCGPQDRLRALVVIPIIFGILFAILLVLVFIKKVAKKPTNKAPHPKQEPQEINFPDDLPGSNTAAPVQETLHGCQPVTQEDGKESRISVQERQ
recombinant human CD40 (ECD)-his (human), sequence (P25942 21-193): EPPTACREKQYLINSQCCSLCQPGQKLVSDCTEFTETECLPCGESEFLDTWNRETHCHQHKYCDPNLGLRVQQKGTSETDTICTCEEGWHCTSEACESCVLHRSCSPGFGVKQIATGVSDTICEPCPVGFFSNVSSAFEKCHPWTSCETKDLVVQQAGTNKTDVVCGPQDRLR
recombinant rhesus CD40 (ECD)-hFc (rhesus monkey), sequence (P25942 other isoform, or with tags, fused parts or gaps): as the sequence (P25942 21-193) above, with G43S, H56R, W89L, T92M, A95S, L101P, S106L, H142R, L172Q counted along it

RO7009789 (antibody) gave an HEK Blue EC50 [1] of 0.0233 µg/mL, an EC50 [2] of 0.0207 µg/mL and an EC50 [3] of 0.0162 µg/mL. It also gave an EC50 [4] of 0.227 µg/mL, an EC50 [5] of 0.185 µg/mL and a Kd [6] of 1.71 nM.
